The record followed here is FireProtDB (doi:10.1007/s11095-019-2705-5).

For this data set the following is noted: Homo sapiens, Thermal, fluorescence, whole UniProt chain shown.

B1: Bone morphogenetic protein 2 wild type, P12643 (protein)
chain: MVAGTRCLLALLLPQVLLGGAAGLVPELGRRKFAAASSGRPSSQPSDEVLSEFELRLLSMFGLKQRPTPSRDAVVPPYMLDLYRRHSGQPGSPAPDHRLERAASRANTVRSFHHEESLEELPETSGKTTRRFFFNLSSIPTEEFITSAELQVFREQMQDALGNNSSFHHRINIYEIIKPATANSKFPVTRLLDTRLVNQNASRWESFDVTPAVMRWTAQGHANHGFVVEVAHLEEKQGVSKRHVRISRSLHQDEHSWSQIRPLLVTFGHDGKGHPLHKREKRQAKHKQRKRLKSSCKRHPLYVDFSDVGWNDWIVAPPGYHAFYCHGECPFPLADHLNSTNHAIVQTLVNSVNSKIPKACCVPTELSAISMLYLDENEKVVLKNYQDMVVEGCGCR
In the case of B1, the Tm (in general, the temperature at which the thermal transition is half complete) (pH 2, Citrate) is 33 °C; the Tm (pH 3, Citrate) came out at 41 °C; the melting temperature (Tm) (pH 4.5, Acetate) is 53 °C; the Tm (pH 4.5, Malonate) came to 63 °C; the Tm (pH 5, Acetate) was 55 °C; the Tm (pH 6, MES) came out at 62 °C. Besides, the Tm by setting is: (pH 7, MOPS) 63 °C; (pH 8.5, Tris) 61 °C; (pH 10, phosphate) 59 °C; (pH 10.5, CAPS) 52 °C; (pH 11, CAPS) 32 °C.
